{"source": "patent US20220033460A1", "about": "(REPERTOIRE IMMUNE MEDICINES, published 2022)", "binders": {"B1": {"name": "TCR_11 (TCR, V domains shown)", "V domain 1": "EDQVTQSPEALRLQEGESSSLNCSYTVSGLRGLFWYRQDPGKGPEFLFTLYSAGEEKEKERLKATLTKKESFLHITAPKPEDSATYLCAVQAPMSARGSQGNLIFGKGTKLSVKP", "V domain 2": "GAGVSQSPSNKVTEKGKDVELRCDPISGHTALYWYRQSLGQGLEFLIYFQGNSAPDKSGLPSDRFSAERTGGSVSTLTIQRTQQEDSAVYLCASSSKGGGQQTQYFGPGTRLLVLE"}}, "molecular_target": "[…] / HLA-B*07:02 tetramer (human; SARS-CoV-2)", "assay": "DNA-barcoded tetramer staining, single-cell sequencing", "data": [{"binder": "B1", "values": [{"measurement": "No. of Cells", "value": 10, "unit": "cells"}]}]}
